Measurements taken from article PMC6702328 (2019).

Assays:
Test in all cases: MST
human mutant SOD1^G85R = human mutant SOD1^G85R (human, fluorescently labeled (NanoTemper BLUE protein-labeling kit) where it was the labelled partner in MST)
Target sequence (chain, as listed by the source G85R): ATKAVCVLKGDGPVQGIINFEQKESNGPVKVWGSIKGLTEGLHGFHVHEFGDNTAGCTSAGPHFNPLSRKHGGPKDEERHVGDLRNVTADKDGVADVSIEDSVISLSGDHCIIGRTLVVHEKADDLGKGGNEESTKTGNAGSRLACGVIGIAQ

[1] = biological target: wild type human SOD1 (Cu/Zn superoxide dismutase) (human, UniProt P00441 1-154, fluorescently labeled (NanoTemper BLUE protein-labeling kit) where it was the labelled partner in MST)
human mutant SOD1^G93A = human mutant SOD1^G93A (human, fluorescently labeled (NanoTemper BLUE protein-labeling kit) where it was the labelled partner in MST)
Target sequence (chain, as listed by the source G93A): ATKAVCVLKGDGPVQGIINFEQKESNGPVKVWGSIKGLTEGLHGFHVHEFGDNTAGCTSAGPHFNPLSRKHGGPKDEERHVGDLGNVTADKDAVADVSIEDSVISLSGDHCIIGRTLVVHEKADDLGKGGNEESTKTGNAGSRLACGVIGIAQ

Chain of wild type human SOD1 (Cu/Zn superoxide dismutase) (P00441 whole entry): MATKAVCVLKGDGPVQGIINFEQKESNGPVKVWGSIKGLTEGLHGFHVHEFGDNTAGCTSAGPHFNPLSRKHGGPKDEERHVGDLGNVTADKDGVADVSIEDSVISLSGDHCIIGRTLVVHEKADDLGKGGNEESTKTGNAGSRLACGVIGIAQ

B1: 1-26 N-Terminal peptide of VDAC1 (peptide)
peptide: MAVPPTYADLGKSARDVFTKGYGFGL
For B1, the EC50 (human mutant SOD1^G85R) was 3.75 µM, the EC50 [1] was greater than 200 µM and the EC50 (human mutant SOD1^G93A) was 3.75 µM.
